T1: leukotriene A4 hydrolase (LTA4H) (Homo sapiens, UniProt P09960)
T1 construct: N-terminal (His)6- and Xpress-tag
T1 sequence (P09960 2-611): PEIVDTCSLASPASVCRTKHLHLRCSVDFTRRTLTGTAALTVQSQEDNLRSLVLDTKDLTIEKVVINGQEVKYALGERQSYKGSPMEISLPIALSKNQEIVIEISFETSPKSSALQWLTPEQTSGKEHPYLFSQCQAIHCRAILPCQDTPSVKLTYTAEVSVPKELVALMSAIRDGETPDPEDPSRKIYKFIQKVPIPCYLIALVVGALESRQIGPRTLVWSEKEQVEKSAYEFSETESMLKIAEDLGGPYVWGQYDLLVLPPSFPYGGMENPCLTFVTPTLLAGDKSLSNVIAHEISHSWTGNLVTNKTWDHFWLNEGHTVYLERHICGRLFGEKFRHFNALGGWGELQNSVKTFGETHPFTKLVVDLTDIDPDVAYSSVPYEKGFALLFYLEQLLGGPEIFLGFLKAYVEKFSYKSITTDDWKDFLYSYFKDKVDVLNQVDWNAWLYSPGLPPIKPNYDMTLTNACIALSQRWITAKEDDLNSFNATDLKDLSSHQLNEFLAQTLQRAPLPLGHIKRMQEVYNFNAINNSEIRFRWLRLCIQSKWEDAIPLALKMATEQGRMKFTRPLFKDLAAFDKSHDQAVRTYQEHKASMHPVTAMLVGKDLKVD

B1: leukotriene A4 hydrolase (LTA4H) (Homo sapiens) (protein)
chain: T1 sequence (P09960 2-611)
notes: N-terminal (His)6- and Xpress-tag

Tests used:
[1] = biological target: T1, leukotriene A4 hydrolase (LTA4H); assay: X-ray co-crystal structure of ternary LTA4H:4MDM:OPB-Pro complex, […] Å; format: binding
purified protein = substrate: N=C(N)NCCC[C@H](N)C(=O)Nc1ccc([N+](=O)[O-])cc1; assay: purified protein; settings: Zn2+ LTA4H AP substrate site; cannot bind simultaneously with 4MDM
[2] = substrate: O=C(Nc1ccc([N+](=O)[O-])cc1)[C@@H]1CCCN1; assay: Michaelis-Menten hydrolysis kinetics of purified LTA4H at A405 (KM); format: biochemical, Homo sapiens; settings: Zn2+ LTA4H AP substrate site
[3] = substrate: C[C@H](N)C(=O)Nc1ccc([N+](=O)[O-])cc1; assay: as above; format: biochemical, Homo sapiens; settings: Zn2+ LTA4H AP substrate site

Molecule	X-ray co-crystal structure of ternary LTA4H:4MDM:OPB-Pro complex, 2.8 Å [1]	Km (purified protein) [µM]	kcat (purified protein) [s⁻¹]	kcat/Km (purified protein) [M⁻¹ s⁻¹]	Km [2] [µM]	kcat [2] [s⁻¹]	kcat/Km [2] [M⁻¹ s⁻¹]	Km [3] [µM]	kcat [3] [s⁻¹]	kcat/Km [3] [M⁻¹ s⁻¹]
O=C(O)[C@@H]1CCCN1C(=O)CCC(=O)N1CCCC1 [OPB-Pro, N-(4-oxo-4-pyrrolidinyl-butanoyl)-proline]	The OPB-Pro was bound in the AP active site with its prolyl carbonyl group interacting with the zinc atom.									
B1		18790 ± 2730	24.4	1300	840 ± 50	0.19 ± 0.01	230	1600 ± 120	1.74 ± 0.07	1080
